According to paper PMC3058899 (Nature, 2010):

T1: RebH (Lentzea aerocolonigenes, UniProt Q8KHZ8)
T1 sequence (Q8KHZ8 1-530): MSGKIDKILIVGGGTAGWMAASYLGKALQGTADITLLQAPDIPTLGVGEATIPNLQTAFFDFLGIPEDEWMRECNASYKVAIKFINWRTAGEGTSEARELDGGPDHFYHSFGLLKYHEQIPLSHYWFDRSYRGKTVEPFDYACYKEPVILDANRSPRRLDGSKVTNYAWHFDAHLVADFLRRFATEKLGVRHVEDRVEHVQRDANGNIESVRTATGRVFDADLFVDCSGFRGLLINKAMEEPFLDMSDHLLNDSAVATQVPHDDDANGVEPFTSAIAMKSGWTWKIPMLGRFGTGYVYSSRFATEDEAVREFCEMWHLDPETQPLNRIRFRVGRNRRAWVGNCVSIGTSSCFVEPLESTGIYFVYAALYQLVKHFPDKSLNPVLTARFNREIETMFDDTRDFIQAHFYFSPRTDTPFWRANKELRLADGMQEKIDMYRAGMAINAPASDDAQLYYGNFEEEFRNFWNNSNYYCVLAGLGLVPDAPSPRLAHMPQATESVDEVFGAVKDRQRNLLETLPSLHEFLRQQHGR

B1: tryptophan decarboxylase (C. roseus) (Catharanthus roseus) (protein)
chain: MGSIDSTNVAMSNSPVGEFKPLEAEEFRKQAHRMVDFIADYYKNVETYPVLSEVEPGYLRKRIPETAPYLPEPLDDIMKDIQKDIIPGMTNWMSPNFYAFFPATVSSAAFLGEMLSTALNSVGFTWVSSPAATELEMIVMDWLAQILKLPKSFMFSGTGGGVIQNTTSESILCTIIAARERALEKLGPDSIGKLVCYGSDQTHTMFPKTCKLAGIYPNNIRLIPTTVETDFGISPQVLRKMVEDDVAAGYVPLFLCATLGTTSTTATDPVDSLSEIANEFGIWIHVDAAYAGSACICPEFRHYLDGIERVDSLSLSPHKWLLAYLDCTCLWVKQPHLLLRALTTNPEYLKNKQSDLDKVVDFKNWQIATGRKFRSLKLWLILRSYGVVNLQSHIRSDVAMGKMFEEWVRSDSRFEIVVPRNFSLVCFRLKPDVSSLHVEEVNKKLLDMLNSTGRVYMTHTIVGGIYMLRLAVGSSLTEEHHVRRVWDLIQKLTDDLLKEA

Legend:
PyrH = PyrH (Streptomyces rugosporus, UniProt A4D0H5); assay: LC-MS of 5-chlorotryptophan in transformed C. roseus hairy roots; assay type: cell-based; settings: with RebF reductase, chloride; in planta
RebH = target: T1, RebH; assay: LC-MS of 7-chlorotryptophan in transformed C. roseus hairy roots; assay type: cell-based; settings: with RebF reductase, chloride; in planta
[1] = substrate: N[C@@H](Cc1c[nH]c2c(Cl)cccc12)C(=O)O; assay: in vitro steady-state kinetics of decarboxylation; assay type: biochemical, Catharanthus roseus
[2] = substrate: N[C@@H](Cc1c[nH]c2ccc(Cl)cc12)C(=O)O; assay: in vitro steady-state kinetics of decarboxylation; assay type: biochemical, Catharanthus roseus
[3] = substrate: N[C@@H](Cc1c[nH]c2ccccc12)C(=O)O; assay: in vitro steady-state kinetics of decarboxylation; assay type: biochemical, Catharanthus roseus

Chain of PyrH (A4D0H5 whole entry): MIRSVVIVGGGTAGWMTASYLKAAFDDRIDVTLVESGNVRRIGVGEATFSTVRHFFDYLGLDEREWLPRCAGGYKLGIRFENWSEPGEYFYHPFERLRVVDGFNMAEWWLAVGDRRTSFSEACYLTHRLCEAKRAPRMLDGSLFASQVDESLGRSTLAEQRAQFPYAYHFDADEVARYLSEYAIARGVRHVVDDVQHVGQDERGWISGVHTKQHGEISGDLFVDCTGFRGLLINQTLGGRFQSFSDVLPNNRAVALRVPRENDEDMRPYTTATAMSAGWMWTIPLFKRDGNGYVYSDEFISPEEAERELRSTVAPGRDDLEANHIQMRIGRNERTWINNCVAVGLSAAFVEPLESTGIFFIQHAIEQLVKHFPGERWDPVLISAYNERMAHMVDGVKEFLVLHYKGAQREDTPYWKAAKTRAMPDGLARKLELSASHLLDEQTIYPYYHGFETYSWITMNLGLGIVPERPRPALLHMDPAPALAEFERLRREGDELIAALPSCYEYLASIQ

| Molecule | LC-MS of 5-chlorotryptophan in transformed C. roseus hairy roots (PyrH) | LC-MS of 7-chlorotryptophan in transformed C. roseus hairy roots (RebH) | Km [1] | kcat [1] | Km [2] | kcat [2] | Km [3] | kcat [3] |
| --- | --- | --- | --- | --- | --- | --- | --- | --- |
| N[C@@H](Cc1c[nH]c2ccccc12)C(=O)O [compound 1, tryptophan] | we observed accumulation of 5-chlorotryptophan 1b | formation of chlorinated tryptophan 1a and 1b and chlorinated alkaloids in both the RebH/RebF | – | – | – | – | – | – |
| B1 | – | – | 499 ± 74 µM | 0.0267 ± 0.00067 s⁻¹ | 538 ± 48 µM | 0.0417 ± 0.0013 s⁻¹ | 51.7 ± 9.2 µM | 0.085 ± 0.0017 s⁻¹ |
